The source of these data is US20210130838.

A value given as a limit tells only on which side of the number the result lay.

Assay in all cases: cell_activity
For one series, the system named is MAD7. The settings on record: PAM TTTV.
For series [1], the system named is BsCas12a (Butyrivibrio sp.?). The following applies: PAM TTTV.
The next series deals with CMaCas12a. The settings on record: PAM TTTV; rice protoplasts.
Series [2] relates to TsCas12a (Thiomicrospira sp.?). The following applies: PAM TTTV; stable transgenic rice.
The subject of a further series is BoCas12a. The following applies: PAM TTTV; rice protoplasts.
Another series deals with MbCas12a. The settings on record: PAM TTTV; rice protoplasts.
In the next series the test system is MlCas12a. The settings on record: PAM TTTV; rice protoplasts.
The next series relates to Lb5Cas12a. The settings on record: PAM TTTV; rice protoplasts.
The test system of a further series is Mb2Cas12a.

“AAGAAGGGUUAUGGCCAAUGCUU / TCCATTTGTTTGAAGAAGGGTTATGGCCAATGCTTGCCC / GGGCAAGCATTGGCCATAACCCTTCTTCAAACAAATGGA [crRNA OsEPFL9 spacer 23 nt ; OsEPFL9-TTTV target]”: the activity with MAD7 (stable transgenic rice) is above 80 % editing; in [1] (stable transgenic rice), above 80 % editing; in the series with CMaCas12a it was 5.1 % editing; in series [2], above 80 % editing.

As to “CAGAAAGAGAAGGAGGCACAGAU / CTTTTCCAGAAAGAGAAGGAGGCACAGATCTTGCCGT / ACGGCAAGATCTGTGCCTCCTTCTCTTTCTGGAAAAG [crRNA OsDEP1-TTTV spacer (inferred) ; OsDEP1-TTTV target]”, the activity in the series with MAD7 (rice protoplasts) is 34.1 % editing; with BoCas12a, 7.8 % editing; in series [1] (rice protoplasts), 20.1 % editing; with MbCas12a, 7.2 % editing; in the series with CMaCas12a, 2.7 % editing; with MlCas12a, 13.9 % editing. The activity stood at 28.8 % editing in the series with Lb5Cas12a and 19.7 % editing with Mb2Cas12a (PAM TTTV, rice protoplasts).

In the series with Mb2Cas12a (PAM TTV, 22 C), “CUCAAGGUGAGCGCCCCGCGGCG / GTTCCTCAAGGTGAGCGCCCCGCGGCGGCGGCGGCTG / CAGCCGCCGCCGCCGCGGGGCGCTCACCTTGAGGAAC [crRNA OsDEP1-TTV spacer (inferred) ; OsDEP1-TTV target]” gave an activity of 6.4 % indels.

In turn, “CUGGGCUCGGCGUCCUCGACGUC / GAGTTGCTGGGCTCGGCGTCCTCGACGTCGTCCTCGCCG / CGGCGAGGACGACGTCGAGGACGCCGAGCCCAGCAACTC [crRNA OsR005-TTV spacer (inferred) ; OsR005-TTV target]” registered an activity in the series with Mb2Cas12a (PAM TTV, 22 C) of 8.3 % indels.
